Experimental data as given in patent publication US20220306762A1.

Assays:
[1] = target: His-tagged human CD38 (ACRO Biosystems cat #CD8-H5224) (human) (UniProt P28907); test: SPR (Carterra LSA), antibody captured by anti-human Fc, His-tagged CD38 injected
[2] = target: CD38 on Daudi target cells (UniProt P28907); test: cell-based or functional assay
[3] = target: His-tagged human CD38 (ACRO Biosystems CD8-H5224) (human) (UniProt P28907); test: SPR (second run), His-tagged CD38
[4] = target: His-tagged human CD38 (ACRO Biosystems cat #CD8-H5224) (human) (UniProt P28907); test: SPR (Carterra LSA), His-CD38 analyte

Substance	Kd [1]	ADCC EC50 [2]	Max RLU [2]	PBMC ADCC EC50 [2]	Kd [3]	Kd [4]	Lowest Remaining Target % [2]
Isa Benchmark (antibody)	5.8 nM	12.3 ng/mL	3.16e+06 RLU	0.0406 ng/mL	5.8 nM	2.69 nM	
Daratumumab (benchmark) (antibody)		68.2 ng/mL	2.47e+06 RLU	0.0983 ng/mL			57%
Dara Benchmark (antibody)					37.1 nM		
